From the supplement of paper PMC10724198
± gives the standard deviation of the averaged measurements.

Tests used:
Saccharomyces cerevisiae [1] = assay: protein stability index of tFT-peptide fusion (C-terminal peptide) (PSI (0-1 scale)); higher = more stable (slower turnover)
Method: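 MPS profiling in S. cerevisiae of the tFT-X12 degron library: putative degron peptides plus stable controls, 12 aa, fused to the C-terminus of a sfGFP-mCherry timer. Cells are FACS-sorted into 8 mCherry/sfGFP bins and deep-sequenced. PSI runs from 0 (unstable) to 1 (stable). Backgrounds are wild type, das1Δ and doa10Δ at 30 °C, and wild type, das1Δ, cdc34-1 and cdc53-1 at 37 °C; 2-3 technical replicates each.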

Saccharomyces cerevisiae [2] = assay: as above; details: genetic background: wild type; temperature: 30 C
[3] = genetic background: cdc34-1, temperature: 37 C
[4] = genetic background: cdc53-1, temperature: 37 C
[5] = genetic background: das1 deletion, temperature: 30 C
[6] = genetic background: das1 deletion, temperature: 37 C
[7] = genetic background: doa10 deletion, temperature: 30 C
[8] = genetic background: wild type, temperature: 30 C
[9] = genetic background: wild type, temperature: 37 C
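Also: PSI is a weighted mean of sequencing reads over stability bins, variants kept only with over 10 reads, mCherry proximal and sfGFP distal, peptide attached via GGGS linker.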

| Sequence | protein stability index (Saccharomyces cerevisiae [1]; [3]) | protein stability index (Saccharomyces cerevisiae [1]; [4]) | protein stability index (Saccharomyces cerevisiae [1]; [5]) | protein stability index (Saccharomyces cerevisiae [1]; [6]) | protein stability index (Saccharomyces cerevisiae [1]; [7]) | protein stability index (Saccharomyces cerevisiae [1]; [8]) | protein stability index (Saccharomyces cerevisiae [1]; [9]) | protein stability index (Saccharomyces cerevisiae [2]) |
| --- | --- | --- | --- | --- | --- | --- | --- | --- |
| RRWGFRSFLVGI | 0.728 ± 0.018 | 0.7869 ± 0.0035 | 0.712 ± 0.026 | 0.803 ± 0.026 | 0.645 ± 0.041 | 0.647 ± 0.022 | 0.7579 ± 0.0061 | 0.7307 ± 0.0056 |
| RSGGVPGFGRLC | 0.703 ± 0.033 | 0.7361 ± 0.0064 | 0.661 ± 0.02 | 0.7301 ± 0.003 | 0.658 ± 0.034 | 0.653 ± 0.022 | 0.723 ± 0.037 | 0.745 ± 0.014 |
| RSLRLFGCLGSL | 0.756 ± 0.029 | 0.762 ± 0.027 | 0.647 ± 0.019 | 0.751 ± 0.021 | 0.658 ± 0.039 | 0.647 ± 0.023 | 0.753 ± 0.016 | 0.7185 ± 0.0059 |
| RSWMRHVLRVAS | 0.543 ± 0.048 | 0.701 ± 0.0072 | 0.525 ± 0.026 | 0.719 ± 0.025 | 0.0958 ± 0.0031 | 0.104 ± 0.01 | 0.154 ± 0.013 | 0.194 ± 0.004 |
| RVDEVVKKLRTL | 0.62 ± 0.027 | 0.665 ± 0.047 | 0.667 ± 0.012 | 0.707 ± 0.0091 | 0.0971 ± 0.035 | 0.107 ± 0.028 | 0.17 ± 0.025 | 0.195 ± 0.043 |
| RVHYELEQIVIK | 0.632 ± 0.1 | 0.699 ± 0.019 | 0.581 ± 0.0072 | 0.664 ± 0.059 | 0.585 ± 0.053 | 0.574 ± 0.025 | 0.62 ± 0.064 | 0.518 ± 0.089 |
| RVSVNDGRRDSV | 0.712 ± 0.046 | 0.723 ± 0.016 | 0.652 ± 0.039 | 0.73 ± 0.013 | 0.681 ± 0.011 | 0.664 ± 0.015 | 0.707 ± 0.022 | 0.557 ± 0.18 |
| RWFPPPQYLRLV | 0.567 ± 0.021 | 0.648 ± 0.014 | 0.598 ± 0.02 | 0.68556 ± 0.00021 | 0.19 ± 0.032 | 0.163 ± 0.019 | 0.397 ± 0.024 | 0.288 ± 0.011 |
| RYEKIIKQINKQ | 0.609 ± 0.062 | 0.738 ± 0.015 | 0.655 ± 0.037 | 0.7664 ± 0.0071 | 0.13 ± 0.034 | 0.164 ± 0.06 | 0.429 ± 0.011 | 0.268 ± 0.044 |
| RYSVIRWMLIVC | 0.0413 ± 0.012 | 0.0475 ± 0.01 | 0.0885 ± 0.021 | 0.13 ± 0.0059 | 0.0358 ± 0.01 | 0.0321 ± 0.0053 | 0.0441 ± 0.0061 | 0.051 ± 0.013 |
| SALLLWAISIIC | 0.0476 ± 0.0084 | 0.117 ± 0.055 | 0.169 ± 0.031 | 0.221 ± 0.011 | 0.117 ± 0.019 | 0.15 ± 0.023 | 0.185 ± 0.011 | 0.22 ± 0.015 |
| SCDMIVTLIQIR | 0.5 ± 0.047 | 0.53 ± 0.022 | 0.375 ± 0.033 | 0.539 ± 0.0092 | 0.35 ± 0.016 | 0.383 ± 0.02 | 0.527 ± 0.0017 | 0.409 ± 0.027 |
| SCICTSCLVLVL | 0.5223 ± 0.0033 | 0.509 ± 0.024 | 0.327 ± 0.032 | 0.552 ± 0.002 | 0.298 ± 0.011 | 0.32 ± 0.029 | 0.5334 ± 0.0046 | 0.368 ± 0.049 |
| SCPEFNIRVRNG | 0.641 ± 0.033 | 0.669 ± 0.047 | 0.661 ± 0.023 | 0.731 ± 0.012 | 0.138 ± 0.022 | 0.168 ± 0.028 | 0.409 ± 0.045 | 0.297 ± 0.11 |
| SCSHYRLICSRL | 0.9109 ± 0.0012 | 0.92 ± 0.015 | 0.752 ± 0.022 | 0.87 ± 0.012 | 0.6118 ± 0.0026 | 0.579 ± 0.033 | 0.7975 ± 0.0065 | 0.598 ± 0.25 |
| SDVHLKSEALAA | 0.682 ± 0.024 | 0.69 ± 0.0095 | 0.569 ± 0.025 | 0.656 ± 0.013 | 0.5543 ± 0.0018 | 0.568 ± 0.02 | 0.663 ± 0.024 | 0.542 ± 0.11 |
| SFFLIISFFVRV | 0.2341 ± 0.0015 | 0.394 ± 0.051 | 0.23 ± 0.049 | 0.366 ± 0.031 | 0.239 ± 0.028 | 0.224 ± 0.054 | 0.336 ± 0.013 | 0.338 ± 0.066 |
| SFFSFLLLRVPC | 0.119 ± 0.022 | 0.144 ± 0.019 | 0.203 ± 0.026 | 0.303 ± 0.022 | 0.199 ± 0.0044 | 0.201 ± 0.026 | 0.288 ± 0.043 | 0.308 ± 0.03 |
| SFGSMIITYAWG | 0.616 ± 0.011 | 0.623 ± 0.0089 | 0.467 ± 0.021 | 0.638 ± 0.021 | 0.491 ± 0.065 | 0.486 ± 0.034 | 0.637 ± 0.026 | 0.473 ± 0.034 |
| SFWLGVGIFFVG | 0.544 ± 0.038 | 0.597 ± 0.022 | 0.434 ± 0.028 | 0.618 ± 0.028 | 0.405 ± 0.013 | 0.419 ± 0.023 | 0.559 ± 0.015 | 0.481 ± 0.021 |

| Sequence | protein stability index (Saccharomyces cerevisiae [1]; [3]) | protein stability index (Saccharomyces cerevisiae [1]; [4]) | protein stability index (Saccharomyces cerevisiae [1]; [5]) | protein stability index (Saccharomyces cerevisiae [1]; [6]) | protein stability index (Saccharomyces cerevisiae [1]; [7]) | protein stability index (Saccharomyces cerevisiae [1]; [8]) | protein stability index (Saccharomyces cerevisiae [1]; [9]) | protein stability index (Saccharomyces cerevisiae [2]) |
| --- | --- | --- | --- | --- | --- | --- | --- | --- |
| SFYVWILLWSYY | 0.26 ± 0.0071 | 0.256 ± 0.012 | 0.252 ± 0.023 | 0.384 ± 0.032 | 0.223 ± 0.015 | 0.214 ± 0.024 | 0.323 ± 0.014 | 0.294 ± 0.021 |
| SGGRFVLFIIAV | 0.444 ± 0.012 | 0.538 ± 0.048 | 0.376 ± 0.031 | 0.582 ± 0.013 | 0.344 ± 0.022 | 0.37 ± 0.023 | 0.535 ± 0.0051 | 0.42491 ± 0.00036 |
| SGVHWFRGNSWG | 0.697 ± 0.00077 | 0.749 ± 0.012 | 0.653 ± 0.0093 | 0.74 ± 0.027 | 0.657 ± 0.0087 | 0.646 ± 0.013 | 0.716 ± 0.036 | 0.712 ± 0.0087 |
| SHGKDVLNKINS | 0.608 ± 0.019 | 0.763 ± 0.045 | 0.633 ± 0.025 | 0.72 ± 0.033 | 0.146 ± 0.0078 | 0.17 ± 0.013 | 0.23 ± 0.036 | 0.319 ± 0.077 |
| SHTRPPVTAPLH | 0.689 ± 0.026 | 0.7142 ± 0.0027 | 0.646 ± 0.0068 | 0.72895 ± 0.00039 | 0.668 ± 0.033 | 0.654 ± 0.014 | 0.695 ± 0.0075 | 0.7165 ± 0.0055 |
| SIFSIFFLVRNF | 0.4535 ± 0.0038 | 0.551 ± 0.029 | 0.436 ± 0.037 | 0.59 ± 0.023 | 0.117 ± 0.0077 | 0.12 ± 0.039 | 0.195 ± 0.028 | 0.217 ± 0.0043 |
| SIFSIRRQISFS | 0.662 ± 0.0077 | 0.743 ± 0.009 | 0.653 ± 0.017 | 0.724 ± 0.012 | 0.327 ± 0.0085 | 0.346 ± 0.014 | 0.5729 ± 0.0022 | 0.418 ± 0.015 |
| SILVLGRSVGVG | 0.436 ± 0.026 | 0.4817 ± 0.00055 | 0.44 ± 0.027 | 0.521 ± 0.023 | 0.451 ± 0.0099 | 0.442 ± 0.01 | 0.49 ± 0.018 | 0.519 ± 0.07 |
| SIQMNCILLLVI | 0.211 ± 0.041 | 0.224 ± 0.021 | 0.213 ± 0.026 | 0.339 ± 0.012 | 0.188 ± 0.032 | 0.186 ± 0.024 | 0.299 ± 0.028 | 0.298 ± 0.058 |
| SKPFPRHIFSLH | 0.674 ± 0.022 | 0.737 ± 0.027 | 0.663 ± 0.026 | 0.7348 ± 0.0039 | 0.481 ± 0.03 | 0.4981 ± 0.0046 | 0.644 ± 0.012 | 0.503 ± 0.046 |
| SLCWSYVWVSCP | 0.264 ± 0.035 | 0.302 ± 0.007 | 0.247 ± 0.024 | 0.375 ± 0.0093 | 0.21 ± 0.0079 | 0.241 ± 0.022 | 0.343 ± 0.0047 | 0.334 ± 0.018 |
| SLFERLSPVLCF | 0.249 ± 0.037 | 0.2784 ± 0.0027 | 0.23 ± 0.024 | 0.3548 ± 0.00059 | 0.214 ± 0.008 | 0.224 ± 0.017 | 0.30185 ± 0.00011 | 0.308 ± 0.011 |
| SLFVLLVSALLH | 0.173 ± 0.029 | 0.32 ± 0.025 | 0.212 ± 0.025 | 0.38251 ± 0.0002 | 0.18 ± 0.0094 | 0.194 ± 0.033 | 0.328 ± 0.011 | 0.345 ± 0.02 |
| SLGRYVSFLFVV | 0.433 ± 0.02 | 0.6623 ± 0.0014 | 0.565 ± 0.024 | 0.668 ± 0.024 | 0.106 ± 0.0061 | 0.0996 ± 0.016 | 0.153 ± 0.019 | 0.202 ± 0.004 |
| SLLSELILVGVS | 0.394 ± 0.0081 | 0.409 ± 0.0044 | 0.284 ± 0.035 | 0.465 ± 0.0089 | 0.229 ± 0.011 | 0.304 ± 0.018 | 0.4308 ± 0.0017 | 0.406 ± 0.021 |
| SLLWLYSAFVWY | 0.302 ± 0.012 | 0.409 ± 0.011 | 0.347 ± 0.032 | 0.503 ± 0.016 | 0.188 ± 0.027 | 0.186 ± 0.023 | 0.386 ± 0.069 | 0.324 ± 0.05 |
| SLRCILISTRVK | 0.541 ± 0.02 | 0.601 ± 0.054 | 0.331 ± 0.046 | 0.563 ± 0.0091 | 0.317 ± 0.043 | 0.348 ± 0.021 | 0.531 ± 0.018 | 0.437 ± 0.087 |
| SLVFCYSLFVFI | 0.342 ± 0.08 | 0.464 ± 0.0058 | 0.381 ± 0.039 | 0.472 ± 0.012 | 0.368 ± 0.044 | 0.347 ± 0.04 | 0.444 ± 0.028 | 0.402 ± 0.017 |
| SLYSFRCFFVLF | 0.35 ± 0.027 | 0.461 ± 0.022 | 0.408 ± 0.022 | 0.51 ± 0.019 | 0.182 ± 0.0065 | 0.17 ± 0.012 | 0.235 ± 0.0058 | 0.263 ± 0.032 |
